These are literature values, as cited in paper PMC3024536.

The target in the data set is CD8αα (Mus musculus) (UniProt P01731).
Sequence of UniProt P01731 (P01731 28-196): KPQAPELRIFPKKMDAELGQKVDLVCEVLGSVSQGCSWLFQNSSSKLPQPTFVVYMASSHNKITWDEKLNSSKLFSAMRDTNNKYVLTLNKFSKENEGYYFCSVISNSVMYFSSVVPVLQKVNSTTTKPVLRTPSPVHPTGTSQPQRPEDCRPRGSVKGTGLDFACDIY

Turning to “thymus leukaemia antigen (TL) (from UniProt P14432)”, the Kd (commonly a measure of binding affinity in units of concentration) was 12 µM.
